Experimental data from patent publication US20240132589A1.

Assays:
[1] = target: Human LILRB2 on stably transduced HEK293T cells (human) (UniProt Q8N423); assay: flow cytometry competition on HEK293T-LILRB2 cells; blocking mAb 1 µg/mL; competitor: biotinylated B2Comp1
[2] = target: Human LILRB2 on stably transduced HEK293T cells (human) (UniProt Q8N423); assay: flow cytometry competition on HEK293T-LILRB2 cells; blocking mAb 1 µg/mL; competitor: biotinylated B2Comp2
[3] = target: Human LILRB2 on stably transduced HEK293T cells (human) (UniProt Q8N423); assay: flow cytometry competition on HEK293T-LILRB2 cells; blocking mAb 10 µg/mL; competitor: biotinylated B2Comp1
[4] = target: Human LILRB2 on stably transduced HEK293T cells (human) (UniProt Q8N423); assay: flow cytometry competition on HEK293T-LILRB2 cells; blocking mAb 10 µg/mL; competitor: biotinylated B2Comp2
[5] = target: Human LILRB2 on stably transduced HEK293T cells (human) (UniProt Q8N423); assay: flow cytometry competition on HEK293T-LILRB2 cells; blocking mAb 0.1 µg/mL; competitor: biotinylated B2Comp1
[6] = target: Human LILRB2 on stably transduced HEK293T cells (human) (UniProt Q8N423); assay: flow cytometry competition on HEK293T-LILRB2 cells; blocking mAb 0.1 µg/mL; competitor: biotinylated B2Comp2

Human LILRB2 on stably transduced HEK293T cells (human), sequence (Q8N423 other isoform, or with tags, fused parts or gaps limits assumed): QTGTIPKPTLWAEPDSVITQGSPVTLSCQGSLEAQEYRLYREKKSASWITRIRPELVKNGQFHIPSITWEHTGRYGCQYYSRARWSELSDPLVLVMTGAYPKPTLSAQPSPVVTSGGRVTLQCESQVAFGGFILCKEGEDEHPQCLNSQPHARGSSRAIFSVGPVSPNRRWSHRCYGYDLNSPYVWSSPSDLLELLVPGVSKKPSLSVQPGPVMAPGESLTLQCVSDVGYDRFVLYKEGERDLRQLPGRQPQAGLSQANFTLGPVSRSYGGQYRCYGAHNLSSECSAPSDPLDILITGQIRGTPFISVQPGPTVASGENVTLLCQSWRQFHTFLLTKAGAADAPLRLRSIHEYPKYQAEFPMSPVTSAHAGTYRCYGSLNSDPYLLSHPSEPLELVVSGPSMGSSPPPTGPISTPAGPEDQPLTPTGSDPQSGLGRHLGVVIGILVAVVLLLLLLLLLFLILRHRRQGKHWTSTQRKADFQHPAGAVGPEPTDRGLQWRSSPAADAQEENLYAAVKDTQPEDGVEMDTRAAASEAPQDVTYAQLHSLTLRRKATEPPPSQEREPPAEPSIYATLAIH

hIgG4 isotype control (antibody)
0%: % Blocking of B2Comp1 Binding [1] | % Blocking of B2Comp2 Binding [2] | % Blocking of B2Comp1 Binding [3] | % Blocking of B2Comp2 Binding [4] | % Blocking of B2Comp1 Binding [5] | % Blocking of B2Comp2 Binding [6]
